Measured values: the supplement of paper PMC10219994
± gives the standard deviation of the averaged measurements.

B1: library; a variant is named by its letters at N, in order (parent)
chain: GAGACCGCAACTGAAAAGTTGTGGNNNNNATAGTGAGTCGCTGCCTGCAAAGACACAACT

Variants of: B1
Test: ligation selection enrichment (abundance after / before one-round selection) (fold); higher = more template-directed ligation activity
Details: with T7Psub CACGGAUGCUAAUACGACUCACUAUA; MgCl2 25 mM; 42 °C; 4 h; pH 8.5
Protocol: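 Lib-N5 ligase ribozyme library: five randomized core nucleotides (including the GGA motif of N8-1) within the fixed N8-1 ribozyme flanks, transcribed by T7 RNA polymerase with a 5'-triphosphate. The library (0.75 uM) was reacted with substrate T7Psub (6 uM) in 50 mM EPPS pH 8.5 with 25 mM MgCl2 at 42 C for 4 h. Ligated products were PAGE-purified, reverse transcribed and MiSeq sequenced; enrichment = abundance after selection / abundance before selection, with two independent replicates. The full transcript is built from the printed template flanks.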

Row | Variant | ligation selection enrichment
1 | GAGACCGCAACTGAAAAGTTGTGGTCTAAATAGTGAGTCGCTGCCTGCAAAGACACAACT [TCTAA] | 0.0912 ± 0.0077
2 | GAGACCGCAACTGAAAAGTTGTGGTCTACATAGTGAGTCGCTGCCTGCAAAGACACAACT [TCTAC] | 0.152 ± 0.03
3 | GAGACCGCAACTGAAAAGTTGTGGTCTATATAGTGAGTCGCTGCCTGCAAAGACACAACT [TCTAT] | 0.102 ± 0.035
4 | GAGACCGCAACTGAAAAGTTGTGGTCTAGATAGTGAGTCGCTGCCTGCAAAGACACAACT [TCTAG] | 0.285 ± 0.051
5 | GAGACCGCAACTGAAAAGTTGTGGACGTTATAGTGAGTCGCTGCCTGCAAAGACACAACT [ACGTT] | 0.149 ± 0.0019
6 | GAGACCGCAACTGAAAAGTTGTGGACGTAATAGTGAGTCGCTGCCTGCAAAGACACAACT [ACGTA] | 0.221 ± 0.0031
7 | GAGACCGCAACTGAAAAGTTGTGGACGTCATAGTGAGTCGCTGCCTGCAAAGACACAACT [ACGTC] | 0.172 ± 0.045
8 | GAGACCGCAACTGAAAAGTTGTGGACGTGATAGTGAGTCGCTGCCTGCAAAGACACAACT [ACGTG] | 0.17 ± 0.0072
9 | GAGACCGCAACTGAAAAGTTGTGGGCTCAATAGTGAGTCGCTGCCTGCAAAGACACAACT [GCTCA] | 0.244 ± 0.1
10 | GAGACCGCAACTGAAAAGTTGTGGCCGGTATAGTGAGTCGCTGCCTGCAAAGACACAACT [CCGGT] | 0.152 ± 0.021
11 | GAGACCGCAACTGAAAAGTTGTGGCCGGGATAGTGAGTCGCTGCCTGCAAAGACACAACT [CCGGG] | 0.244 ± 0.014
12 | GAGACCGCAACTGAAAAGTTGTGGTCGGGATAGTGAGTCGCTGCCTGCAAAGACACAACT [TCGGG] | 0.41 ± 0.01
13 | GAGACCGCAACTGAAAAGTTGTGGTCGGTATAGTGAGTCGCTGCCTGCAAAGACACAACT [TCGGT] | 0.115 ± 0.0078
14 | GAGACCGCAACTGAAAAGTTGTGGACTAGATAGTGAGTCGCTGCCTGCAAAGACACAACT [ACTAG] | 0.403 ± 0.037
15 | GAGACCGCAACTGAAAAGTTGTGGACTAAATAGTGAGTCGCTGCCTGCAAAGACACAACT [ACTAA] | 0.168 ± 0.031
16 | GAGACCGCAACTGAAAAGTTGTGGACTATATAGTGAGTCGCTGCCTGCAAAGACACAACT [ACTAT] | 0.119 ± 0.05
17 | GAGACCGCAACTGAAAAGTTGTGGACTACATAGTGAGTCGCTGCCTGCAAAGACACAACT [ACTAC] | 0.128 ± 0.011
18 | GAGACCGCAACTGAAAAGTTGTGGGCTACATAGTGAGTCGCTGCCTGCAAAGACACAACT [GCTAC] | 0.15 ± 0.04
19 | GAGACCGCAACTGAAAAGTTGTGGGCTAGATAGTGAGTCGCTGCCTGCAAAGACACAACT [GCTAG] | 0.375 ± 0.11
20 | GAGACCGCAACTGAAAAGTTGTGGGCTAAATAGTGAGTCGCTGCCTGCAAAGACACAACT [GCTAA] | 0.176 ± 0.0063
21 | GAGACCGCAACTGAAAAGTTGTGGGCTATATAGTGAGTCGCTGCCTGCAAAGACACAACT [GCTAT] | 0.196 ± 0.035
22 | GAGACCGCAACTGAAAAGTTGTGGACTCAATAGTGAGTCGCTGCCTGCAAAGACACAACT [ACTCA] | 0.217 ± 0.031
23 | GAGACCGCAACTGAAAAGTTGTGGACGGGATAGTGAGTCGCTGCCTGCAAAGACACAACT [ACGGG] | 0.165 ± 0.012

Row | Variant | ligation selection enrichment
24 | GAGACCGCAACTGAAAAGTTGTGGACGGTATAGTGAGTCGCTGCCTGCAAAGACACAACT [ACGGT] | 0.169 ± 0.025
25 | GAGACCGCAACTGAAAAGTTGTGGCCGTGATAGTGAGTCGCTGCCTGCAAAGACACAACT [CCGTG] | 0.111 ± 0.0037
26 | GAGACCGCAACTGAAAAGTTGTGGCCGTCATAGTGAGTCGCTGCCTGCAAAGACACAACT [CCGTC] | 0.178 ± 0.022
27 | GAGACCGCAACTGAAAAGTTGTGGCCGTAATAGTGAGTCGCTGCCTGCAAAGACACAACT [CCGTA] | 0.213 ± 0.013
28 | GAGACCGCAACTGAAAAGTTGTGGCCGTTATAGTGAGTCGCTGCCTGCAAAGACACAACT [CCGTT] | 0.149 ± 0.04
29 | GAGACCGCAACTGAAAAGTTGTGGGCGGCATAGTGAGTCGCTGCCTGCAAAGACACAACT [GCGGC] | 0.103 ± 0.017
30 | GAGACCGCAACTGAAAAGTTGTGGGCGGTATAGTGAGTCGCTGCCTGCAAAGACACAACT [GCGGT] | 0.186 ± 0.11
31 | GAGACCGCAACTGAAAAGTTGTGGGCGGGATAGTGAGTCGCTGCCTGCAAAGACACAACT [GCGGG] | 0.201 ± 0.0056
32 | GAGACCGCAACTGAAAAGTTGTGGCCTAAATAGTGAGTCGCTGCCTGCAAAGACACAACT [CCTAA] | 0.148 ± 0.0065
33 | GAGACCGCAACTGAAAAGTTGTGGCCTACATAGTGAGTCGCTGCCTGCAAAGACACAACT [CCTAC] | 0.14 ± 0.03
34 | GAGACCGCAACTGAAAAGTTGTGGCCTAGATAGTGAGTCGCTGCCTGCAAAGACACAACT [CCTAG] | 0.356 ± 0.004
35 | GAGACCGCAACTGAAAAGTTGTGGCCTATATAGTGAGTCGCTGCCTGCAAAGACACAACT [CCTAT] | 0.149 ± 0.059
36 | GAGACCGCAACTGAAAAGTTGTGGTCGTCATAGTGAGTCGCTGCCTGCAAAGACACAACT [TCGTC] | 0.202 ± 0.02
37 | GAGACCGCAACTGAAAAGTTGTGGTCGTAATAGTGAGTCGCTGCCTGCAAAGACACAACT [TCGTA] | 0.31 ± 0.074
38 | GAGACCGCAACTGAAAAGTTGTGGTCGTTATAGTGAGTCGCTGCCTGCAAAGACACAACT [TCGTT] | 0.205 ± 0.12
39 | GAGACCGCAACTGAAAAGTTGTGGTCGTGATAGTGAGTCGCTGCCTGCAAAGACACAACT [TCGTG] | 0.173 ± 0.047
40 | GAGACCGCAACTGAAAAGTTGTGGCCTCCATAGTGAGTCGCTGCCTGCAAAGACACAACT [CCTCC] | 0.347 ± 0.0045
41 | GAGACCGCAACTGAAAAGTTGTGGCCTCAATAGTGAGTCGCTGCCTGCAAAGACACAACT [CCTCA] | 0.348 ± 0.055
42 | GAGACCGCAACTGAAAAGTTGTGGGCGTAATAGTGAGTCGCTGCCTGCAAAGACACAACT [GCGTA] | 0.332 ± 0.038
43 | GAGACCGCAACTGAAAAGTTGTGGGCGTGATAGTGAGTCGCTGCCTGCAAAGACACAACT [GCGTG] | 0.272 ± 0.018
44 | GAGACCGCAACTGAAAAGTTGTGGGCGTTATAGTGAGTCGCTGCCTGCAAAGACACAACT [GCGTT] | 0.288 ± 0.12
45 | GAGACCGCAACTGAAAAGTTGTGGGCGTCATAGTGAGTCGCTGCCTGCAAAGACACAACT [GCGTC] | 0.231 ± 0.09
